Experimental data as given in patent US20220324998A1 (MUSC FOUNDATION FOR RESEARCH DEVELOPMENT, published 2022).

Legend:
[1] = molecular target: T1, HRAS(Q61L) (UniProt P01112 1-189, limits assumed); experiment: co-IP (FLAG IP, Western blot) from HEK cells (FIG. 6)
T1 construct: HA-tagged, expressed in HEK cells; also called Q61L mutant; HA-tagged HRAS Q61L
Excerpt: (§1) R15m clones were expressed as CFP-FLAG fusion proteins in HEK cells along with various HA-tagged mutants of HRAS. CFP and NS1 Monobody were used as controls. CFP-FLAG and CFP-FLAG-tagged Monobodies (Mb) were immunoprecipitated, fractionated on SDSPAGE, and probed for binding to HRAS mutants. Antibodies used in Western blots are shown to the right of each panel.
(§2) R15 or R18 Monobody was expressed as CFP-FLAG fusion proteins in HEK cells along with various HA-tagged mutants of HRAS or KRAS, immunoprecipitated, and probed for binding to RAS mutants (FIGS. 1B and 1C). Additionally, various R15-derivative (R15m #) Monobody clones were expressed as CFP-FLAG fusion proteins in HEK cells along with various HA-tagged mutants of HRAS, immunoprecipitated, and probed for binding to RAS mutants (FIG. 5). R15 and R18 clones bound predominantly to Q61L, D119N, and K16N mutants with little binding to wild type (WT) or G12V mutant. K16N purifies from bacteria in a nucleotide free state. […] R15m10 binds Q61L mutants of all three RAS isoforms in addition to binding to NRAS(G12D) mutant (FIG. 6). Further R15m10 binds common oncogenic RAS mutants (FIG. 7 and FIG. 8).

[2] = molecular target: T2, NRAS(Q61L) (UniProt P01111 1-189, limits assumed); experiment: as above
T2 construct: HA-tagged, expressed in HEK cells
Excerpt: as §1, §2

[3] = molecular target: NRAS(G12D) (UniProt P01111 1-189, limits assumed); experiment: as above
Excerpt: as §1, §2

[4] = molecular target: T3, HRAS(G12V) (UniProt P01112 1-189); experiment: FLAG IP of monobody from HEK cells co-transfected with HA-tagged RAS mutant (FIG. 11D)
T3 construct: also called G12V mutant
Excerpt: FIG. 11A depicts KRAS(Q61L) co-expression with NS1 and R15. FIG. 11B depicts KRAS(G12D) co-expression with NS1 and R15. FIG. 11C depicts KRAS(G13D) co-expression with NS1 and R15. FIG. 11D depicts HRAS(G12V) co-expression with NS1 and R15. FIGS. 11E and 11F depict total expression of proteins with NS1 and R15, respectively, in whole cell lysates (WCL). HEK cells were co-transfected with the indicated Mb and HA-tagged RAS mutant. Monobodies were subsequently immunoprecipitated with FLAG antibodies to purify the associated RAS mutant protein. IPs were washed extensively with buffer containing high Mg2+ and lacking nucleotide. RAS proteins were then eluted from the immune complex with buffer containing low concentrations of SDS and deoxycholate (DOC). Eluted RAS proteins were then recovered and diluted 10-fold with buffer lacking SDS and DOC. Purified RAS proteins were then normalized to equivalent levels and incubated with GST-RAF-RBD to determine the level of active GTP-loaded RAS. As indicated, NS1 purified RAS-GTP as the purified RAS proteins robustly bound GST-RAF RBD both in the absence and presence of added GTPγS. […] However, addition of GTPγS (+GTP) to the R15m10 purified RAS proteins reconstituted binding to the RAF-RBD.
HEK cells were co-transfected with the indicated Mb and HA-tagged RAS mutant. […]

Measured: binding result

B1: FLAG-tagged CFP-R15m10 Monobody (designed binder)
chain: VSSVPTKLEVVAATPTSLLISWDASSSSVSYYRITYGETGGNSPVQEFTVPGYYSTATISGLKPGVDYTITVYAVWQGVWRYVSPISINYRT
notes: also called apo-specific monobody R15m10; not shown: CFP; FLAG tag
binds: all assays above
